Targets include HLA-A*02:01; HLA-B*53:01; HLA-B*57:01; HLA-B*35:01; HLA-B*44:03.
What all share (assay): IEDB peptide-MHC binding, purified MHC/competitive/radioactivity; ≥ and ≤ were set here for values at or beyond the usual limits of such assays
What all share (settings): source organism: Bordetella pertussis

Regarding LTWLAILAV, in the test with HLA-A*02:01, the IC50 worked out at 4.09 µM. Take GVGLASTLW: the IC50 was found to be 12.6 µM in the test with HLA-B*53:01 and 18.8 µM in the test with HLA-B*57:01. Turning to YFEPGPTTD, the IC50 in the test with HLA-B*53:01 is 69.9 µM.

As to SVAPNALAW, the figures for the half-maximal inhibitory concentration (IC50) in the test with HLA-B*53:01 and with HLA-B*35:01 were 0.983 µM and 56.3 µM, respectively. In the case of LSSPSAITV, the IC50 with HLA-B*57:01 is no less than 70.4 µM. For TSPYDGKYW, the IC50 in the test with HLA-B*57:01 was no less than 70.4 µM. For the sequence QADRDFVWY, the IC50 came to 37.7 µM in the test with HLA-B*44:03 and 27.2 µM with HLA-B*53:01. RGFAQRQQL: the IC50 with HLA-B*57:01 turned out to be 54.3 µM. Same read-out and setting: then DAGHEHDTW, with 32.9 µM.

Take RAGLSPATW: the half-maximal inhibitory concentration (IC50) with HLA-B*53:01 was 27.2 µM. For KAGKLSATG, the IC50 in the test with HLA-B*57:01 is 45.5 µM. For YTLRYLASY, the IC50 in the test with HLA-B*35:01 was determined as 3.52 µM; in the test with HLA-B*57:01, 0.00076 µM.

On to LLHHILPIL, for which the IC50 with HLA-A*02:01 is 1.47 µM. Take EATEGDATL: the IC50 in the test with HLA-B*53:01 was 46.1 µM; with HLA-B*35:01, 69.9 µM. With CPSSLGNGV, the IC50 in the test with HLA-B*53:01 came out at 26.4 µM. As to KSYTLRYLA, in the test with HLA-B*57:01, the IC50 was 0.263 µM.

Usually IC50 stands for the midpoint of a concentration-inhibition curve.

The values above are taken from the Immune Epitope Database (IEDB).
